Measurements from patent US20210380703A1 (RIGEL PHARMACEUTICALS, published 2021).
Positions count from the first letter of the chain named.

B1: 370_F05 (antibody, V domains shown)
VH: EVQLLESGGGLVQPGGSLRLSCAASGFTFSSYGMNWVRQAPGKGLEWVSGINYNSGYTSYADSVKGRFTISRDNSKNTLYLQMNSLRAEDTAVYYCARSANWHDTALDYWGQGTLVTVSS
VL: DIQMTQSPSSLSASVGDRVTITCRASQSIVSYVNWYQQKPGKAPKLVIYAATSRASGVPSRFSGSGSGTDFTLTISSLQPEDFATYYCQQSYETPLTFGGGTKVEIK
B2: 372_D02 (antibody, V domains shown)
VH: B1 VH with N35H, S49A, S55G, S59G
VL: B1 VL with V30L, S31T, V33L, E93D, T94N
B3: 370_H01 (antibody, V domains shown)
VH: B1 VH with G33S, T58K, S59G
VL: B1 VL with V30I, V33L, V47L, A51V, E93D
B4: 371_F04 (antibody, V domains shown)
VH: B1 VH with S30D, G33S, S49A, T58K, S59G
VL: B1 VL with V30L, V33L, V47L, A55H, E93N, T94N
B5: 372_C07 (antibody, V domains shown)
VH: B1 VH with S31D, G33S, G50N, A106H
VL: B1 VL with V30L, V33L, A55H, Y92D, E93N
B6: 371_F08 (antibody, V domains shown)
VH: B1 VH with S30D, S31D, G33S, S55G, S59G
VL: B1 VL with A55H, T94S
B7: 371_D06 (antibody, V domains shown)
VH: B1 VH with S30D, S31D, G33S, S49A, S55G
VL: B1 VL with V30I, V47L, E93S
B8: 370_G09 (antibody, V domains shown)
VH: B1 VH with S49A, S55G, T58K
VL: B1 VL with V30L, T94S
B9: 370_F10 (antibody, V domains shown)
VH: B1 VH with G33S, S49A, S55G
VL: B1 VL with V33L, E93N, T94S
B10: 371_A08 (antibody, V domains shown)
VH: B1 VH with N35H, G50S, S55G
VL: B1 VL with V30L, V33L, T94L
B11: 372_F03 (antibody, V domains shown)
VH: B1 VH with S49A, S55G
VL: B1 VL with V30L, V33L, E93D
B12: 370_G03 (antibody, V domains shown)
VH: B1 VH with G33S, S49A, G50N, S55G, S59G
VL: B1 VL with V30L, S31T, A51T, E93N, T94N
B13: 371_F01 (antibody, V domains shown)
VH: B1 VH with G33S, S49A, S55G, S59G
VL: B1 VL with V30L, S31T, R54L, E93N, T94N
B14: 372_F09 (antibody, V domains shown)
VH: B1 VH with S30D, G33S, S49A, G50N, T58K, S59G
VL: B1 VL with V30L, S31T, V33L, R54L, E93S, T94S
B15: 371_A12 (antibody, V domains shown)
VH: B1 VH with S30D, G33S, S49A
VL: B1 VL with V30L, R54L, E93D
B16: 370_H09 (antibody, V domains shown)
VH: B1 VH with S49A, G50N, S55G
VL: B1 VL with V47L, E93D, T94N
B17: 371_A07 (antibody, V domains shown)
VH: B1 VH with S31D, G33S, G50N, S55G, T58K
VL: B1 VL with V30L, V33L, A51T, E93D, T94L
B18: 371_A03 (antibody, V domains shown)
VH: B1 VH with S31D, S49A, G50N, S55G, S59G
VL: B1 VL with V30L, V33L, A51T, T94S
B19: 371_A06 (antibody, V domains shown)
VH: B1 VH with S49A, S55G
VL: B1 VL with V30L, S31T, V33L, A55H, E93D, T94S
B20: 370_G06 (antibody, V domains shown)
VH: B1 VH with S31D, N35H, G50S, S55G
VL: B1 VL with V30L, Y92D, E93N
B21: 371_G10 (antibody, V domains shown)
VH: B1 VH with G33S, S55G, T58K
VL: B1 VL with V30S, V47L, A55H, Y92D, E93D, T94S
B22: 370_F07 (antibody, V domains shown)
VH: B1 VH with S30D, G33S, G50N, S55G, T58K, S59G
VL: B1 VL with V30L, V33L, V47L, E93N, T94L
B23: 371_G05 (antibody, V domains shown)
VH: B1 VH with S30D, G33S, S59G
VL: B1 VL with V30S, V33L, V47L, A51V, E93S, T94S
B24: 372_F08 (antibody, V domains shown)
VH: B1 VH with S31D, G33S, G50N, S59G
VL: B1 VL with V30L, S31T, E93D
B25: 370_G10 (antibody, V domains shown)
VH: B1 VH with S31D
VL: B1 VL with V30S, V33L, V47L, A50V, A51V, T52N, S53N, T94N
B26: 370_G11 (antibody, V domains shown)
VH: B1 VH with G33S, S49A, G50S, A106H
VL: B1 VL with V33L, E93S, T94L
B27: 371_B07 (antibody, V domains shown)
VH: B1 VH with S30D, G33S, S49A, S55G
VL: B1 VL with V30L, S31T, V47L, T94L
B28: 371_D09 (antibody, V domains shown)
VH: B1 VH with G33S, G50N, S59G
VL: B1 VL with V30L, S31T, V33L, E93N, T94N
B29: 371_H09 (antibody, V domains shown)
VH: B1 VH with S30D, G33S, G50N, S55G
VL: B1 VL with V30L, S31T, R54L, E93D, T94S
B30: 372_B04 (antibody, V domains shown)
VH: B1 VH with S30D, S49A, G50N, S55G
VL: B1 VL with V30L, R54L, E93D, T94S
B31: 371_B06 (antibody, V domains shown)
VH: B1 VH with S30D, G33S, S49A, S55G, T58K
VL: B1 VL with V30L, S31T, A55H, E93N, T94L
B32: 370_G02 (antibody, V domains shown)
VH: B1 VH with S31D, G33S, S49A, G50N, S55G, T58K, S59G
VL: B1 VL with V33L, V47L, A55H, E93D, T94S
B33: 372_F06 (antibody, V domains shown)
VH: B1 VH with S31D, S49A, S55G, T58K
VL: B1 VL with V30L, V47L, R54L
B34: 371_C03 (antibody, V domains shown)
VH: B1 VH with G33S, G50N, S55G, T58K, S59G
VL: B1 VL with V30L, V33L, A51T, E93S
B35: 371_F06 (antibody, V domains shown)
VH: B1 VH with S30D, G33S, S49A, G50N, S55G
VL: B1 VL with V33L, A55H, E93N, T94S
B36: 372_A04 (antibody, V domains shown)
VH: B1 VH with S30D, G33S
VL: B1 VL with V30L, S31T, V33L

How the values were obtained:
Human ACVR2A = target: T1, Human ACVR2A (human, UniProt P27037 20-135, limits assumed); assay: ELISA
T1 construct: also called activin receptor, type II A
T1 sequence (P27037 20-135 limits assumed): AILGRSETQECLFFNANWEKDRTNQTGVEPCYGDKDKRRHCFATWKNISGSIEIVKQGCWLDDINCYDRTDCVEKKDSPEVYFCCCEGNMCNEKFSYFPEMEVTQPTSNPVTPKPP
Procedure, shortened: (§1)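 mAb binding by ELISA; antigens: hu ACVR2A, mu ACVR2A; pos ctrl biotinylated goat anti-hu kappa LC; neg ctrl hu Fc.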

Mouse ACVR2A = Mouse ACVR2A (mouse, UniProt P27038 20-135, limits assumed); assay: ELISA
Chain of Mouse ACVR2A (P27038 20-135 limits assumed): as the sequence (P27037 20-135 limits assumed) above, with K20R, V73I counted along it
Procedure, shortened: as §1

Goat anti-Human Kappa = target: T2, Goat anti-Human Kappa; assay: ELISA, positive control
T2 construct: Positive control of the ELISA; also called biotinylated goat anti-human kappa light chain
Procedure, shortened: as §1
Note: test concentration or dose not given here.

| Binder | optical density (Human ACVR2A) | optical density (Mouse ACVR2A) | optical density (Goat anti-Human Kappa) |
| --- | --- | --- | --- |
| B1 | 2.76 OD | 2.91 OD | 3.54 OD |
| B2 | 2.66 OD | 2.91 OD | 3.58 OD |
| B3 | 3.31 OD | 3.18 OD | 3.65 OD |
| B4 | 2.95 OD | 3.1 OD | 3.66 OD |
| B5 | 2.41 OD | 2.64 OD | 3.46 OD |
| B6 | 2.2 OD | 2.55 OD | 3.43 OD |
| B7 | 1.48 OD | 1.55 OD | 3.32 OD |
| B8 | 3.01 OD | 3.14 OD | 3.64 OD |
| B9 | 3.15 OD | 3.22 OD | 3.64 OD |
| B10 | 1.06 OD | 1.16 OD | 2.44 OD |
| B11 | 3.19 OD | 3.31 OD | 3.6 OD |
| B12 | 3.1 OD | 3.44 OD | 3.58 OD |
| B13 | 2.41 OD | 2.62 OD | 3.68 OD |
| B14 | 3.17 OD | 3.04 OD | 3.47 OD |
| B15 | 3.17 OD | 3.3 OD | 3.63 OD |
| B16 | 2.95 OD | 3.28 OD | 3.54 OD |
| B17 | 2.88 OD | 3.06 OD | 3.65 OD |
| B18 | 2.84 OD | 2.62 OD | 3.56 OD |

| Binder | optical density (Human ACVR2A) | optical density (Mouse ACVR2A) | optical density (Goat anti-Human Kappa) |
| --- | --- | --- | --- |
| B19 | 2.65 OD | 2.79 OD | 3.51 OD |
| B20 | 2.19 OD | 2.33 OD | 3.41 OD |
| B21 | 1.65 OD | 1.92 OD | 3.41 OD |
| B22 | 3.45 OD | 3.53 OD | 3.52 OD |
| B23 | 1.25 OD | 1.33 OD | 3.08 OD |
| B24 | 3.38 OD | 3.22 OD | 3.44 OD |
| B25 | 2.98 OD | 2.74 OD | 3.49 OD |
| B26 | 2.98 OD | 3.07 OD | 3.72 OD |
| B27 | 2.78 OD | 3.04 OD | 3.33 OD |
| B28 | 2.89 OD | 2.94 OD | 2.17 OD |
| B29 | 2.96 OD | 3.23 OD | 3.66 OD |
| B30 | 2.61 OD | 3.12 OD | 3.59 OD |
| B31 | 2.69 OD | 2.71 OD | 3.3 OD |
| B32 | 2.98 OD | 3.22 OD | 3.62 OD |
| B33 | 2.26 OD | 2.54 OD | 3.48 OD |
| B34 | 3.01 OD | 3.24 OD | 3.6 OD |
| B35 | 2.41 OD | 2.79 OD | 3.46 OD |
| B36 | 3.2 OD | 3.4 OD | 3.64 OD |
